Laboratory results from the nanobody polyreactivity screen of Harvey et al. (2022).

test: yeast display, Sf9 membrane polyspecificity reagent, FACS + sequencing; frameworks hold sequencing errors
How it was run: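 A synthetic nanobody library was expressed on Saccharomyces cerevisiae BJ5465 by galactose induction for 36–48 hours. The library was stained for 1 hour at 4 °C with 10% biotinylated, detergent-solubilized Sf9 membrane reagent and enriched with streptavidin microbeads before FACS. Low and high (top ~1%) gates were set on anti-HA fluorescence for expression and streptavidin fluorescence for reagent binding, and each polyreactivity label reflects the gate of origin.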

Sequence	polyreactivity (PSR sort gate)
QVQLVESGRGLVQAGGSLRLSCAASGSTFDGYAMGWYRQAPGKVRELVAAINWGGGSTRYADSVKGRFTISRDHAKNTVYLQMNSLKPEDTPVYYCAAYRYRVWYRGYDYWGQGTQVTVSS	high polyreactivity
QVQLVESGRGLVQAGGSLRLSCAASGSTFQVYTMGWYRQAPGKEREFVASISWSGSSTYYADSVKGRFTISRDNAKNTVYLQMNSLKPEDTAVYYCAARVGSTYRRYYYWGQGTQVTVSS	high polyreactivity
QVQLVESGRGLVQAGGSLRLSCAASGSTFRGNAMGWYRQATGKERELVAAITRSGGRTYYADSVKGRFTISRDNAKNTVYLQMNSLKPEDTAVYYCAVEYKYPGYDYWGPGTQVTVSS	high polyreactivity
QVQLVESGRGLVQAGGSLRLSCAASGSTFTEYAMGWYREAPGKERELFAAINRSGGGTYYADSVKGRFTISRDNAKNTVYLQINSLKPEDTADYYCAKDWYRRYIRDYWGQGTQVTVSS	high polyreactivity
QVQLVESGRGLVQAGGSLRLSCAASGYIFDRYAMGWSRQAPGKERELVAAISGRGGSTYYADSVKGRFTISRDNAKNTVYLQMNSLNPEDTAVYYCARDVYVRNGQRARYDSWGQGTQVTVSS	high polyreactivity
QVQLVESGRGLVQAGGSLRLSCAASGYTFSHYAMGWYRQAPGKEMELVAGNTWSGGSTYYADSVKGRFTISRDNAKNTVYLQMNSLKPEDTSVYYCAAKYYWYYSYSGIPLFDYWGQGTQVTVSS	low polyreactivity
QVQLVESGRGLVQAGGSLRLSCHASGFTFSPYTMGWSRQAPGKERELVATIRYDCTSTYYADSVKGRFTISRDNAKNTVYLQMNSLKPEDTAVYYCAADIWRVYSTFYYWGQGTEVTVSS	low polyreactivity
QVQLVESGRGLVQAGGSLSLSCAASGITFGNYAMGWYRQAPGKERELVAAITGSGGRTYYADSVKVRFTISRDNAKNTVYLQMNSLKPEDTAVYDCAAKQYTRFGYYYWGQGTQLTVSS	high polyreactivity
QVQLVESGRGLVQEGGSLRLSCAPSGSTFYRFAMGWYRQAPGKERELVAAISASGGSTYYADSVKGRFTISRDNAKYTVYLQMNSLKPEDTEVYYCNRDRRYRNDYWGQGTQVTVST	high polyreactivity
QVQLVESGRGLVQEGGSLRLSCASSGSTFKVYAMGWYRQAPGKERELVAAISQSGGSTYYADSVKGRFTISRDNAKNTVYIQMNSLKPEDTAVYYCAVRTYVYNWSFSSLPYDYWGQGTQVTVSS	high polyreactivity
QVQLVESGRRLVQAGGSLRLSCAASGINFDSYAMGWYRQAPGKERELVAAITSDSGRTYYADSVTGRFTISRDNAKNTVYLQMNSVKPEDTPVYYCAKRWDGPYDYWGQGTQVTVSS	low polyreactivity
QVQLVESGRRLVQAGGSLRLSCAASGSIFIPNVMGWYRQAPRKERELVASIRSNGGTNYADSVKGRFTISRDNAKNTVYLQMNSLKPEDTAVYNCAAKRWSYRHGFDYLGQGTQVTVSS	high polyreactivity
QVQLVESGSGLVQAGGSLRLSCAHSGFTVSYYVMGWYRQAPGKERELVAAISWSGGSTYYADSVKGRFTISLDNAKNTVYLQMNSLKPEDTAFYYCNADDWRDDYEYWGQGTQVTVSS	high polyreactivity
QVQLVESGVGIVQAGCSLRLSCAASGSIFRYYAMGLYRQAPGKERELVAGITASTGRTYYADSVKGRFTISRDNAKNTVYLQMNSLKPEDTAVYYCAARSRYYEYDYWGQGTQVTVSS	low polyreactivity
QVQLVESGVGIVQAGRSHRVSCAASGSTYNPYAMGWYRQAPGKESELVARIRGSGGSTYYADSVKVRFTISRDNAKNPVFLHMNSQKPEDTAVYYCATDDYYLSRYRLVGYYSWGQGTQVTVSS	high polyreactivity
QVQLVESGVGLDQARGSLRLSCAASGITFDDYAMGWYRQAPGKERELVAAISVSGGDTYYADSVKGRFTISRDNAKNTVYLQMNSLKPEDSAVYYCAAEEVSPRWYEYWGQGTQVTVSS	low polyreactivity
QVQLVESGVGLDQARVSLRLSCAASGFTFGQYVMGWYRQAPGKEREFVAIISRSVDSTYYADSVKGRFTISRDNAKNTVYLQMNSLNPEDTAVYYCNARGKRRGKIPYSSYASSYDSWGQGTQVTVSS	high polyreactivity
QVQLVESGVGLGQAGGSLRLSCAASGRIFSRYAMGWYRPAPGKERELVATITRRGGSTSYADSVKGRFTISRDNAKNTVFLQMNCLKPEDTAVYYCAAQSFYGIYYGKQDYDYWGQGTQVTVSS	high polyreactivity
QVQLVESGVGLLQAGGSLRISCAASGSIFFDNSMGRYRQAPGKERELVAAITWSGSRTYYADSVKGRFTISRDNAKNTVYLQMNSLKPEDTAVYYSNAVYWWYWALFTVGRYDYWGQGTQVTVSS	high polyreactivity
QVQLVESGVGLVKAGGSLRLSCAASGSTFNGYGMGWYRQAPGKERELVAAMSWSGGSTYYADSVKGRFTISRDNAKNTGYLLMNSLKPEDTAVYYCAALTHYGGYGYTYDYWGQGTQVTVSS	low polyreactivity
QVQLVESGVGLVQAGCSHRLSCAASGSTISAYDMGSYRQAPGKERELVAAITWIGGNTYYADSVKGRFTISRDNAKNTVYLQMNSLKPEDTAVYYCAAEEVPYDRDMDYWGQGTQVTVSS	low polyreactivity
QVQLVESGVGLVQAGGRLRLICAASGITFGPNALGWYRQAPGKERELVAAISWRGGSTYNADSVKGRFTISRDNGKNTVYLQMNSLKPEDTAVYYCAADLAYGAMVYWGQGTQVTVSS	low polyreactivity
QVQLVESGVGLVQAGGRLRLSCAASGSIFASSAMGWYRKAPGKERELVAVINSYDRTNYADSVKGRFTISRDNAKNTVYLKMNSLKPEDTAVYYCNADAIRIIPAYDYWGQGTQVTVSS	low polyreactivity
QVQLVESGVGLVQAGGSHPLSCAASGSTLRYAMGWNRQAPGKETELVAAISRTGGSTYYADSVKGRFTISRDNAKNTVYLQMNSLKPEDPAVYYCAARYFTSYPLYYYWGQGTQVTVSS	high polyreactivity
QVQLVESGVGLVQAGGSLRLICAASGRNFRTNAMGWYRQAPGKERELVAAISTGGGITKYADSVKGRFTISRDNSKNTVYLQMNSLKPEDTAVYYCAADAVNTLDYWGQGTQVTVSS	low polyreactivity
QVQLVESGVGLVQAGGSLRLICAASGSTFAYNDMGWYRQAPGKERELVAAINGGGGSTYYGDSVKGRFTISRDNAKNTVYLHMNSLKPEVTAVYYCAKGEWSYVDSFGPYYDLVYWGQGTQVTVSS	low polyreactivity
QVQLVESGVGLVQAGGSLRLICGASGFTFDYNSMVWYRQAPGKERELVAAISASGGSTYYADSVKGRFTISRDNAKNTVYLQMKSLKPEDTAVYYCNAGRVTRRDTFDYWGQGTQVTVSS	high polyreactivity
QVQLVESGVGLVQAGGSLRLRCAASGFIFIHNAMGWYRQAPGKERELVAAISYSGGSTYYADSVKGRFTISRDTAKNTVYLQMNSLKPEDTAVYFCNRVQYYRADRMDYWGQGTQVTVSS	low polyreactivity
QVQLVESGVGLVQAGGSLRLSCAAAGYIFFFYAMGWYRQAPGKERELVASITYRGGSTYYADSVKGRFTISRDNAKNTVYLHMNSLKPEDTAVYYCNVDGGGPLGPQGFPFDYWGQGTQVTVSS	low polyreactivity
QVQLVESGVGLVQAGGSLRLSCAASASTFYGYTMGWNRQAPGKERELVAAITSTGRTYYADSVKGRFTISRDNAKNTVYLQMNSLKPEDTAVYYCAKKSSARRYDYDYWGQGTQVTVSS	high polyreactivity
